Measurements: article PMC2886305 (Molecular cell, 2010)
Where no end group is shown, it is not given here.

What was measured:
[1] = test system: CBX7 chromodomain (CBX7CD); test: fluorescence anisotropy; conditions: not given in material (buffer, salt, pH and temperature in supplement)
[2] = molecular target: H3K9me3 peptide of the fluorescence anisotropy assay; test: fluorescence polarisation
CBX7CD = molecular target: T1, CBX7CD (Mus musculus, UniProt Q8VDS3); type: binding; conditions: fluorescence anisotropy, fluorescein-labeled peptide; measured in triplicate
T1 sequence (Q8VDS3 11-69 limits assumed): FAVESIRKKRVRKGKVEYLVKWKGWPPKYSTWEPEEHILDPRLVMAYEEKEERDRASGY

[3] = test system: CBX7 at INK4b/ARF/INK4a locus, PC3 cells; test: ChIP of CBX7 occupation in PC3 cells treated with α-amanitin; type: cell-based, human; conditions: whole PC3 cell treatment, 10 μg/ml, relative to histone H3
[4] = test system: RNA Pol II (ANRIL transcription), PC3 nuclei; test: In vitro transcription of ANRIL from PC3 whole nuclei; type: cell-based, human; conditions: [α-32P]-UTP incorporation
[5] = test system: INK4b/ARF/INK4a locus, PC3 cell nuclei; test: Quantitative ChIP of PC3 nuclei after RNase A; type: cell-based, human
CBX7 chromodomain = molecular target: T2, CBX7 chromodomain ( (human or mouse cDNA cloned), UniProt Q8VDS3 1-71); test: fluorescence polarisation
T2 sequence: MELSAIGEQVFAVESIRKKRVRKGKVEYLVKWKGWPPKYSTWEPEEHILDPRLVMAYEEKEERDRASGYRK

[6] = RNase A treatment of PC3 cell nuclei

With ANRIL loop A RNA as the molecule, how does the Kd [1] read?
The Kd was 13.7 µM.

For ANRIL loop B RNA, which Kd [1] is on record?
Its Kd is 30.2 µM.

Which Kd [1] does the source give for ANRIL loop C RNA here?
The Kd was 14.6 µM.

With “CBX7 chromodomain (from UniProt Q8VDS3 1-71) (domain or fragment)” as the molecule, how does the Kd [2] read?
The Kd was 16.5 µM.

How did the Kd (CBX7CD) turn out when “H3K9me3: H3K9me3 peptide (histone H3 methylated at lysine 9)” was run?
The Kd was 16.5 ± 0.8 µM.

α-amanitin was tested. Which “CBX7 levels (ChIP)” value [3] did it give?
Its value is “depleted levels of CBX7”.

What about the “sensitivity of nascent ANRIL transcription” value [4] of the same molecule?
Its value is “shows sensitivity to α-amanitin”.

B1: RNase A: ribonuclease A (protein, UniProt P61823 27-150, looked up)
Ribonuclease pancreatic: KETAAAKFERQHMDSSTSAASSSNYCNQMMKSRNLTKDRCKPVNTFVHESLADVQAVCSQKNVACKNGQTNCYQSYSTMSITDCRETGSSKYPNCAYKTTQANKHIIVACEGNPYVPVHFDASV
For B1, which “site occupation by CBX7, PHC2, Bmi1 and Suz12” value [5, 6] is on record?
Its value is “dramatically reduced”.

And the “total levels of H1 and H3” value [5, 6]?
The value was “remained about the same”.

What about the “levels of trimethylated H3K27 and ubiquitinated H2AK119” value ([5]; RNase A treatment, at CBX7 occupation sites) of the same molecule?
The value was “greatly reduced”.

APRKQLATKAARK(Me3)SAP (also: fluorescein label (position not given here)) [fluorescein-labeled H3K27me3 peptide] was tested. Which Kd (CBX7 chromodomain) did it give?
Its Kd is 59 ± 4.7 µM.
